The results in this text go back to PMC12528898 (The Journal of Biological Chemistry, 2025).

The target of the test is T1, mNeon PPM1H (full-length PPM1H with mNeon inserted into loop 1 at position 125) (human, UniProt Q9ULR3 1-514).
T1 construct: PPM1H phosphatase, human, full length; mNeon inserted into loop 1 (residues 115-133) at position 125; the plasmid is pET15b His SUMO mNeon PPM1H; His-SUMO removed by Ulp1 before gel filtration; also called WT PPM1H; HisSUMO-mNeon PPM1H; not shown: mNeon, internal (loop 1, at position 125), kept
T1 sequence (looked up): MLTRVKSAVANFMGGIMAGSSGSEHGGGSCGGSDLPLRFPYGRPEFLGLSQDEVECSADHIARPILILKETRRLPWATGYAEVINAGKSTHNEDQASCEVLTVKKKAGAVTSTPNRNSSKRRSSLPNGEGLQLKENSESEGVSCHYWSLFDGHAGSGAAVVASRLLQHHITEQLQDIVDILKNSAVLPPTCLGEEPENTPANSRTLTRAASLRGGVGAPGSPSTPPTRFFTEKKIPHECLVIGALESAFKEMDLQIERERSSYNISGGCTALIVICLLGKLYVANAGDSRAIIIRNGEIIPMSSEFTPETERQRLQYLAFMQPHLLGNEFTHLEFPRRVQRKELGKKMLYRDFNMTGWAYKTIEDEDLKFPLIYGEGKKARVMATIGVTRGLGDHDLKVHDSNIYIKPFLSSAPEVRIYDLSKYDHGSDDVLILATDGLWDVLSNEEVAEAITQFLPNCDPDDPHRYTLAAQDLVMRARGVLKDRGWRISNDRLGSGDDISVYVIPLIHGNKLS
Description: MST; unlabelled Rab protein (16 serial dilutions) titrated against 100 nM fluorescent mNeon PPM1H variant; 30 min in the dark; Monolith NT.115; three independent measurements with different protein preparations. To be noted: both partners purified.

B1: Rab10 Q68L (full length, nonprenylated, nonphosphorylated) (natural protein, human, UniProt P61026 1-200, looked up)
chain: MAKKTYDLLFKLLLIGDSGVGKTCVLFRFSDDAFNTTFISTIGIDFKIKTVELQGKKIKLQIWDTAGLERFHTITTSYYRGAMGIMLVYDITNGKSFENISKWLRNIDEHANEDVERMLLGNKCDMDDKRVVPKGKGEQIAREHGIRFFETSAKANINIEKAFLTLAEDILRKTPVKEPNSENVDISSGGGVTGWKSKCC
notes: also called His SUMO Rab10 (full length) Q68L; untagged Rab10 Q68L; source: E. coli, purified (TALON, Ulp1 cleavage, Superdex 200), 20 μM GTP in all buffers
For orientation: Kd means a measure of binding affinity in units of concentration. High values mean lower affinity, low ones higher affinity. B1 came in with a Kd of 1300 nM.

B2: His Rab8A Q67L (full length, nonprenylated, nonphosphorylated) (natural protein, human, UniProt P61006 1-207, looked up)
chain: MAKTYDYLFKLLLIGDSGVGKTCVLFRFSEDAFNSTFISTIGIDFKIRTIELDGKRIKLQIWDTAGLERFRTITTAYYRGAMGIMLVYDITNEKSFDNIRNWIRNIEEHASADVEKMILGNKCDVNDKRQVSKERGEKLALDYGIKFMETSAKANINVENAFFTLARDIKAKMDKKLEGNSPQGSNQGVKITPDQQKRSSFFRCVLL
notes: subcloned from HA-Rab8A (DU35414) into pET14b; also called Rab8A-6XHis; unphosphorylated Rab8A; source: E. coli, purified (TALON, Superdex 75), 20 μM GTP in all buffers
In turn, B2 had a Kd of 1400 nM.

B3: Thiophosphorylated His Rab8A Q67L (natural protein, human, UniProt P61006 1-207, looked up)
chain: B2 chain
modifications: thiophosphorylated with ATPγS by MST3 kinase (fully modified by PhosTag gel); the residue is not given
notes: Rab8A GTPase, full length, Q67L, thiophosphorylated form of m5; also called Thio-pRab8A (Q67L); thiophosphorylated Rab8A; source: E. coli, purified (TALON, Superdex 75); thiophosphorylated in vitro overnight at 4 °C by His-MST3 kinase with ATPγS
As to B3, the equilibrium dissociation constant (Kd) is 1000 nM.

B4: Rab12 Q101L (full length, nonprenylated, nonphosphorylated) (natural protein, human, UniProt Q6IQ22-2 1-244, looked up)
chain: MDPGAALQRRAGGGGGLGAGSPALSGGQGRRRKQPPRPADFKLQVIIIGSRGVGKTSLMERFTDDTFCEACKSTVGVDFKIKTVELRGKKIRLQIWDTAGLERFNSITSAYYRSAKGIILVYDITKKETFDDLPKWMKMIDKYASEDAELLLVGNKLDCETDREITRQQGEKFAQQITGMRFCEASAKDNFNVDEIFLKLVDDILKKMPLDILRNELSNSILSLQPEPEIPPELPPPRPHVRCC
notes: also called His SUMO Rab12 (full length) Q101L; source: E. coli, purified (TALON, Ulp1 cleavage, Superdex 200), 20 μM GTP in all buffers
B4 registered a Kd of 7400 nM.
